Laboratory results from paper PMC6428754, “Peptidoglycan Remodeling Enables Escherichia coli To Survive Severe Outer Membrane Assembly Defect” (mBio, 2019).

Target: T1, oligohistidine-tagged PBP1B (E. coli, UniProt P02919 1-844)
T1 construct: PBP1B, bifunctional peptidoglycan synthase (glycosyltransferase and DD-transpeptidase) of Escherichia coli; source: purified
T1 sequence (looked up): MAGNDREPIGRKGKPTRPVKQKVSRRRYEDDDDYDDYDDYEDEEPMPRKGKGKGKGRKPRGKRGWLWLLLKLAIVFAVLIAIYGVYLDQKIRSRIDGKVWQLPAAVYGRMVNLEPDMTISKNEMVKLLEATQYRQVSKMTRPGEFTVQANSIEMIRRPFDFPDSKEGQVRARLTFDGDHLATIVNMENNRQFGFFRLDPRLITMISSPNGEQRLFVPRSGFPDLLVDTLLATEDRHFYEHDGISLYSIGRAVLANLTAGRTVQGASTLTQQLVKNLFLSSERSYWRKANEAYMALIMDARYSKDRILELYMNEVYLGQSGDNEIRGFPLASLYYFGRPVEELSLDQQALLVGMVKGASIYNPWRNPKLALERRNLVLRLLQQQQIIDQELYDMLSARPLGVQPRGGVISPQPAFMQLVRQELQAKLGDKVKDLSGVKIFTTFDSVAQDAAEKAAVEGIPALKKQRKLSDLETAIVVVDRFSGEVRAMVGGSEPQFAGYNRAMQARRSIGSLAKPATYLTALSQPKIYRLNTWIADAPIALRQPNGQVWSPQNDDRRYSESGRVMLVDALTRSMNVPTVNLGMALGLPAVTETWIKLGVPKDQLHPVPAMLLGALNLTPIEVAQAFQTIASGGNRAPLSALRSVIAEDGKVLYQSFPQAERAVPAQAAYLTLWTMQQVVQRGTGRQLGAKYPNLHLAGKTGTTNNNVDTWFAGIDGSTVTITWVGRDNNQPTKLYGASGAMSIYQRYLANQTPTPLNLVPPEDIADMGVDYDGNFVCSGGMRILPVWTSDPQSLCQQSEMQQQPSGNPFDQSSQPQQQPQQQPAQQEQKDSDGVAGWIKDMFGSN
Test: MST; microscale thermophoresis curves; means ± SD from three independent experiments; which partner was labelled is not told (Text S1)
Details: both partners purified

B1: LdtD (LD-transpeptidase, formerly YcbB), untagged (enzyme, E. coli, UniProt P22525 1-615, looked up)
chain: MLLNMMCGRQLSAISLCLAVTFAPLFNAQADEPEVIPGDSPVAVSEQGEALPQAQATAIMAGIQPLPEGAAEKARTQIESQLPAGYKPVYLNQLQLLYAARDMQPMWENRDAVKAFQQQLAEVAIAGFQPQFNKWVELLTDPGVNGMARDVVLSDAMMGYLHFIANIPVKGTRWLYSSKPYALATPPLSVINQWQLALDKGQLPTFVAGLAPQHPQYAAMHESLLALLCDTKPWPQLTGKATLRPGQWSNDVPALREILQRTGMLDGGPKITLPGDDTPTDAVVSPSAVTVETAETKPMDKQTTSRSKPAPAVRAAYDNELVEAVKRFQAWQGLGADGAIGPATRDWLNVTPAQRAGVLALNIQRLRLLPTELSTGIMVNIPAYSLVYYQNGNQVLDSRVIVGRPDRKTPMMSSALNNVVVNPPWNVPPTLARKDILPKVRNDPGYLESHGYTVMRGWNSREAIDPWQVDWSTITASNLPFRFQQAPGPRNSLGRYKFNMPSSEAIYLHDTPNHNLFKRDTRALSSGCVRVNKASDLANMLLQDAGWNDKRISDALKQGDTRYVNIRQSIPVNLYYLTAFVGADGRTQYRTDIYNYDLPARSSSQIVSKAEQLIR
notes: LdtD (formerly YcbB), LD-transpeptidase of Escherichia coli; Printed as 'untagged LdtD'; source: purified
B1 was tested, and the Kd was 112 nM.
